± gives the uncertainty stated by the source.
Experiment: self-splicing fitness, log relative to wild type (ln ratio); higher = more splicing; Tetrahymena group I intron in knt gene, E. coli kanamycin selection, DiMSum; sequences stand for … in CUCUCU…GGAGGGAAAAGUUAUCAGGCAUGCACCUGGUAGCUAGUCUUUAAACCAAUAGAUUGCAUCGGUUUAAAAGGCAAGACCGUCAAAUUGCGGGAAAGGGGUCAACAGCCGUUCAGUACCAAGUCUCAGGGGAAACUUUGAGAUGGCCUUGCAAAGGGUAUGGUAAUAAGCUGACGGACAUGGUCCUAACCACGCAGCCAAGUCCUAAGUCAACAGAUCUUCUGUUGAUAUGGAUGCAGUUCACAGACUAAAUGUCGGUCGGGGAAGAUGUAUUCUUCUCAUAAGAUAUAGUCGGACCUCUCCUUAAUGGGAGCUAGCGGAUGAAGUGAUGCAACACUGGAGCCGCUGGGAACUAAUUUGUAUGCGAAAGUAUAUUGAUUAGUUUUGGAGUACUCGUGGUCG
Summary of the method: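 Library with all eight P1ex-region intron nucleotides randomised, intron inside the knt kanamycin-resistance gene on pET-22b(+), in E. coli BL21(DE3). Cells grew overnight at 37°C or 30°C on LB agar with or without 25 μg/mL kanamycin (plus 100 μg/mL carbenicillin, 50 μM IPTG, 0.2% rhamnose), in six replicate transformations. Pooled colonies were amplicon-sequenced on Illumina HiSeq 2500. DiMSum fitness is the error-weighted combination of wild-type-normalised replicate fold changes, kanamycin versus none.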

| Sequence | self-splicing fitness (ln) (30 °C) | self-splicing fitness (ln) (37 °C) |
| --- | --- | --- |
| GGGAAGCAAUAUUACGUAUC | -1.43 ± 0.074 | -1.03 ± 0.11 |
| GGGAAGCAAUAUUACGUGAG | -0.751 ± 0.12 | -1.46 ± 0.12 |
| GGGAAGCAAUAUUACGUGUA | -1.96 ± 0.14 | -0.669 ± 0.11 |
| GGGCAGCAAUAUUACGAGAG | -4.06 ± 0.17 | -2.82 ± 0.16 |
| GGGCAGCAAUAUUACGAUCU | -0.541 ± 0.092 | 0.124 ± 0.12 |
| GGGCAGCAAUAUUACGAUUG | -3.83 ± 0.4 | -2.84 ± 0.27 |
| GGGCAGCAAUAUUACGCCAA | -0.582 ± 0.19 | -0.176 ± 0.24 |
| GGGCAGCAAUAUUACGCCAC | -3.34 ± 0.37 | -1.22 ± 0.38 |
| GGGCAGCAAUAUUACGCCCA | -2.18 ± 0.48 | -1.26 ± 0.32 |
| GGGCAGCAAUAUUACGCGAC | -2.37 ± 0.13 | -2.17 ± 0.21 |
| GGGCAGCAAUAUUACGCGCA | -0.298 ± 0.13 | -0.184 ± 0.13 |
| GGGCAGCAAUAUUACGCUAA | -0.45 ± 0.087 | 0.361 ± 0.14 |
| GGGCAGCAAUAUUACGGCUA | -0.49 ± 0.13 | 0.227 ± 0.14 |
| GGGCAGCAAUAUUACGGCUU | -0.964 ± 0.15 | -1.14 ± 0.16 |
| GGGCAGCAAUAUUACGGGAG | -3.27 ± 0.22 | -2.21 ± 0.2 |
| GGGCAGCAAUAUUACGGGAU | -4.22 ± 0.42 | -1.2 ± 0.17 |
| GGGCAGCAAUAUUACGGGUU | -1.58 ± 0.12 | -0.384 ± 0.12 |
| GGGCAGCAAUAUUACGUAAC | -1.94 ± 0.18 | -0.668 ± 0.2 |
| GGGCAGCAAUAUUACGUCCG | -0.61 ± 0.091 | -0.058 ± 0.14 |
| GGGCAGCAAUAUUACGUCGC | -1.69 ± 0.1 | -1.54 ± 0.14 |
| GGGCAGCAAUAUUACGUCGG | -0.72 ± 0.12 | 0.392 ± 0.15 |
| GGGCAGCAAUAUUACGUGAU | -1.61 ± 0.11 | 0.0478 ± 0.11 |
| GGGCAGCAAUAUUACGUUCC | -2.68 ± 0.23 | -2.58 ± 0.37 |
| GGGCAGCAAUAUUACGUUCG | -0.761 ± 0.088 | -0.431 ± 0.11 |
| GGGGAGCAAUAUUACGACGA | -2.56 ± 0.4 | -1.34 ± 0.28 |

| Sequence | self-splicing fitness (ln) (30 °C) | self-splicing fitness (ln) (37 °C) |
| --- | --- | --- |
| GGGGAGCAAUAUUACGAGUA | -2.89 ± 0.3 | -2.98 ± 0.43 |
| GGGGAGCAAUAUUACGAGUU | -3.08 ± 0.45 | – |
| GGGGAGCAAUAUUACGCGCG | -1.83 ± 0.15 | -0.952 ± 0.17 |
| GGGGAGCAAUAUUACGCGGC | – | -1.24 ± 0.49 |
| GGGGAGCAAUAUUACGCGGG | -2.7 ± 0.31 | -1.72 ± 0.39 |
| GGGGAGCAAUAUUACGCGUC | -3.26 ± 0.43 | -1.47 ± 0.23 |
| GGGGAGCAAUAUUACGCUCU | – | -2.19 ± 0.49 |
| GGGGAGCAAUAUUACGCUGG | -2.98 ± 0.47 | -0.764 ± 0.47 |
| GGGGAGCAAUAUUACGGCAU | -1.9 ± 0.13 | -1.53 ± 0.15 |
| GGGGAGCAAUAUUACGGCGG | – | -0.394 ± 0.41 |
| GGGGAGCAAUAUUACGGGAU | -3.44 ± 0.32 | -1.51 ± 0.22 |
| GGGGAGCAAUAUUACGUACG | -1.76 ± 0.16 | -0.525 ± 0.18 |
| GGGGAGCAAUAUUACGUAGG | -2.68 ± 0.2 | -1.85 ± 0.21 |
| GGGGAGCAAUAUUACGUAUU | – | -3.33 ± 0.42 |
| GGGGAGCAAUAUUACGUGAA | -2.71 ± 0.085 | -1.81 ± 0.12 |
| GGGUAGCAAUAUUACGACGC | -1.08 ± 0.14 | 0.108 ± 0.25 |
| GGGUAGCAAUAUUACGACGU | -0.726 ± 0.12 | -0.0177 ± 0.14 |
| GGGUAGCAAUAUUACGCGAG | -1.85 ± 0.32 | -0.555 ± 0.18 |
| GGGUAGCAAUAUUACGCUCA | -0.291 ± 0.17 | -0.622 ± 0.26 |
| GGGUAGCAAUAUUACGCUCG | -0.269 ± 0.13 | -0.258 ± 0.16 |
| GGGUAGCAAUAUUACGGCCA | -0.214 ± 0.16 | -0.498 ± 0.24 |
| GGGUAGCAAUAUUACGGGGA | -3.52 ± 0.35 | -2.31 ± 0.38 |
| GGGUAGCAAUAUUACGGGGU | -3.33 ± 0.32 | -3.06 ± 0.47 |
| GGGUAGCAAUAUUACGGUGC | -1.9 ± 0.085 | -1.34 ± 0.092 |
| GGGUAGCAAUAUUACGUAAU | -0.889 ± 0.085 | -0.379 ± 0.11 |

| Sequence | self-splicing fitness (ln) (30 °C) | self-splicing fitness (ln) (37 °C) |
| --- | --- | --- |
| GGGUAGCAAUAUUACGUACU | -2.25 ± 0.4 | -1.43 ± 0.38 |
| GGGUAGCAAUAUUACGUGCG | -0.234 ± 0.097 | -0.0569 ± 0.12 |
| GGGUAGCAAUAUUACGUGCU | -0.698 ± 0.15 | -0.399 ± 0.19 |
| GGGUAGCAAUAUUACGUGGC | – | -2.64 ± 0.33 |
| GGGUAGCAAUAUUACGUUUA | -0.585 ± 0.12 | -0.381 ± 0.1 |
| GGUAAGCAAUAUUACGAAUG | -2.23 ± 0.29 | -2.81 ± 0.36 |
| GGUAAGCAAUAUUACGAGUC | -2.59 ± 0.16 | -0.851 ± 0.13 |
| GGUAAGCAAUAUUACGCAAC | – | -1.35 ± 0.38 |
| GGUAAGCAAUAUUACGCACG | 0.408 ± 0.12 | -0.102 ± 0.14 |
| GGUAAGCAAUAUUACGCAUG | -2.62 ± 0.12 | -1.13 ± 0.11 |
| GGUAAGCAAUAUUACGCCAA | -2.07 ± 0.23 | -2.09 ± 0.24 |
| GGUAAGCAAUAUUACGCCGU | -1.93 ± 0.11 | -0.738 ± 0.13 |
| GGUAAGCAAUAUUACGCGGC | -2.84 ± 0.19 | -1.29 ± 0.2 |
| GGUAAGCAAUAUUACGCGUU | -1.34 ± 0.091 | -0.615 ± 0.13 |
| GGUAAGCAAUAUUACGGAAU | -3.35 ± 0.22 | -1.87 ± 0.22 |
| GGUAAGCAAUAUUACGGACG | 0.0239 ± 0.12 | 0.484 ± 0.15 |
| GGUAAGCAAUAUUACGGCGA | -0.523 ± 0.11 | -0.26 ± 0.13 |
| GGUAAGCAAUAUUACGGGUC | -2.39 ± 0.24 | -1.81 ± 0.31 |
| GGUAAGCAAUAUUACGGUAG | -3.72 ± 0.19 | -3.15 ± 0.23 |
| GGUAAGCAAUAUUACGGUUG | -3.76 ± 0.39 | – |
| GGUAAGCAAUAUUACGUAAA | -0.961 ± 0.083 | -1.13 ± 0.13 |
| GGUAAGCAAUAUUACGUAAG | -2.85 ± 0.16 | -2.17 ± 0.17 |
| GGUAAGCAAUAUUACGUGCA | -0.586 ± 0.089 | -0.233 ± 0.13 |
| GGUAAGCAAUAUUACGUUAC | -3.08 ± 0.34 | -1.35 ± 0.31 |
| GGUCAGCAAUAUUACGAACG | 0.0341 ± 0.039 | 0.332 ± 0.057 |

| Sequence | self-splicing fitness (ln) (30 °C) | self-splicing fitness (ln) (37 °C) |
| --- | --- | --- |
| GGUCAGCAAUAUUACGAAUA | -0.866 ± 0.13 | -0.645 ± 0.14 |
| GGUCAGCAAUAUUACGAAUU | 0.104 ± 0.078 | 0.599 ± 0.091 |
| GGUCAGCAAUAUUACGACGU | 0.0937 ± 0.091 | 0.477 ± 0.1 |
| GGUCAGCAAUAUUACGACUC | -3.25 ± 0.24 | -1.61 ± 0.32 |
| GGUCAGCAAUAUUACGAGAU | -2.39 ± 0.14 | -2.31 ± 0.23 |
| GGUCAGCAAUAUUACGAGGU | -1.01 ± 0.13 | -1.7 ± 0.22 |
| GGUCAGCAAUAUUACGAUAC | -1.32 ± 0.16 | -1.59 ± 0.19 |
| GGUCAGCAAUAUUACGCAAA | -1.16 ± 0.17 | -0.412 ± 0.18 |
| GGUCAGCAAUAUUACGCACU | -2.12 ± 0.27 | -0.976 ± 0.24 |
| GGUCAGCAAUAUUACGCAUU | 0.00502 ± 0.059 | 0.0322 ± 0.069 |
| GGUCAGCAAUAUUACGCCCA | -1.55 ± 0.21 | -0.611 ± 0.28 |
| GGUCAGCAAUAUUACGCUUA | 0.0476 ± 0.059 | 0.296 ± 0.078 |
| GGUCAGCAAUAUUACGGAGG | – | -2.54 ± 0.36 |
| GGUCAGCAAUAUUACGGAUA | -0.579 ± 0.086 | 0.248 ± 0.11 |
| GGUCAGCAAUAUUACGGGAG | -3.38 ± 0.22 | -1.45 ± 0.12 |
| GGUCAGCAAUAUUACGGGUG | -1.3 ± 0.067 | -0.637 ± 0.072 |
| GGUCAGCAAUAUUACGGUAU | -0.344 ± 0.11 | 0.218 ± 0.13 |
| GGUCAGCAAUAUUACGGUGC | -0.28 ± 0.075 | 0.535 ± 0.11 |
| GGUCAGCAAUAUUACGUACU | -1.84 ± 0.12 | -0.914 ± 0.13 |
| GGUCAGCAAUAUUACGUAGC | -0.572 ± 0.067 | -0.268 ± 0.081 |
| GGUCAGCAAUAUUACGUCUG | -0.665 ± 0.094 | -0.321 ± 0.11 |
| GGUCAGCAAUAUUACGUGAC | -2.08 ± 0.17 | -2 ± 0.24 |
| GGUGAGCAAUAUUACGACAA | -1.2 ± 0.26 | -0.76 ± 0.3 |

— the supplement of paper PMC7877785
